The target of assay [1] is T1, CD40-Fc (human, UniProt P25942 21-193).
T1 construct: extracellular domain; hinge included for covalent assembly; also called CD40 receptor-Fc fusion protein; not shown: human Fc gamma 1 region including the hinge region
The experiment in a line: ELISA, coated receptor-Fc. A general note: In an ELISA, binding on a coated surface is turned into a signal by an enzyme label.

Assay [2] concerns the target T2, CD27-Fc (human, UniProt P26842 20-191).
T2 construct: extracellular domain; hinge included for covalent assembly; also called CD27 receptor-Fc fusion protein; not shown: human Fc gamma 1 region including the hinge region
T2 sequence (looked up): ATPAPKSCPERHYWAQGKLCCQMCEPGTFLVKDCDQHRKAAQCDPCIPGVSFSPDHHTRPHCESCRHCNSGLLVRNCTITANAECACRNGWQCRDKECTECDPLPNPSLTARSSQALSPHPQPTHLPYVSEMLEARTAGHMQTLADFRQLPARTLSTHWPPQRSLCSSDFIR
The assay can be described thus: ELISA, coated receptor-Fc.

In a further assay the target is 4-1BB receptor on cells (human, UniProt Q07011 24-255). The experiment in a line: cell-based or functional assay.
Assay [3] addresses T3, OX40 receptor on cells (human, UniProt P43489 29-277).
T3 sequence (looked up): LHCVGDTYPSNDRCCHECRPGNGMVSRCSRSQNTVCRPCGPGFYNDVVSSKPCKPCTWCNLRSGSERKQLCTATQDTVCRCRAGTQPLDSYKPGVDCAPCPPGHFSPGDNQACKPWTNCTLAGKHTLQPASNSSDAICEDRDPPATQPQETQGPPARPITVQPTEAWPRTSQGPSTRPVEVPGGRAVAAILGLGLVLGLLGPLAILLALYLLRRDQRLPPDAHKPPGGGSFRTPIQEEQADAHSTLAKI
The experiment in a line: cell-based or functional assay.

Assay [4] has as its target T4, 4-1BB-Fc (human, UniProt Q07011 24-186).
T4 construct: extracellular domain; hinge included for covalent assembly; also called 4-1BB receptor-Fc fusion protein; not shown: human Fc gamma 1 region including the hinge region
The assay can be described thus: ELISA, coated receptor-Fc. The method, then: (§1) Receptor binding of the Duokines was analyzed by ELISA using fusion proteins of the extracellular region of CD40, CD27, 4-1BB and OX40, respectively, with the human Fcγ1 region including the hinge region for covalent assembly (CD40-Fc, CD27-Fc, 4-1BB-Fc, OX40-Fc). Receptor-Fc fusion proteins (200 ng/well) were coated overnight at 4° C. and remaining binding sites were blocked with PBS, 2% skimmed milk powder (2% MPBS).

The target in assay [5] is T5, OX40-Fc (human, UniProt P43489 29-214).
T5 construct: extracellular domain; hinge included for covalent assembly; also called OX40 receptor-Fc fusion protein; not shown: human Fc gamma 1 region including the hinge region
T5 sequence (looked up): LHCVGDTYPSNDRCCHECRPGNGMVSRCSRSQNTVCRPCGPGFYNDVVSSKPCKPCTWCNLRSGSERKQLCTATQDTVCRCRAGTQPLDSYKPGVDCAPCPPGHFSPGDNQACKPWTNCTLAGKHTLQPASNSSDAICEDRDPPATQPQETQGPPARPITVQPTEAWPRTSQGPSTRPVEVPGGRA
The assay can be described thus: ELISA, coated receptor-Fc. The method, then:
as §1

Assay [6] concerns the target T5, OX40-Fc. The experiment in a line: ELISA, coated receptor-Fc. The source holds these as a separate data set.
Assay [7] addresses T2, CD27-Fc. The experiment in a line: ELISA, coated receptor-Fc. The procedure:
as §1
This is another data set of the same source.

In assay [8] the target is T4, 4-1BB-Fc. The assay can be described thus: ELISA, coated receptor-Fc. The source holds these as a separate data set.
Assay [9] addresses T3, OX40 receptor on cells. The assay can be described thus: cell-based or functional assay. The source holds these as a separate data set.
Assay [10] addresses T2, CD27-Fc. The assay can be described thus: ELISA, coated receptor-Fc. The method, then: (§2) Receptor binding of the single-chain Duokines was analyzed by ELISA using fusion proteins of the extracellular region of CD40, CD27, 4-1BB and OX40, respectively, with the human Fcγ1 region including the hinge region for covalent assembly (CD40-Fc, CD27-Fc, 4-1BB-Fc, OX40-Fc). Receptor-Fc fusion proteins (200 ng/well) were coated overnight at 4° C. and remaining binding sites were blocked with PBS, 2% skimmed milk powder (2% MPBS). […] The interactions between scDuokine and receptor were dose-dependent with EC₅₀ values in the low nanomolar ranges (FIG. 11 AB, Tab. 2).
The source holds these as a separate data set.

For assay [11], the target named is T5, OX40-Fc. The experiment in a line: ELISA, coated receptor-Fc. The method, then:
as §2
This is another data set of the same source.

Assay [12] has as its target T6, CD40 receptor on cells (human, UniProt P25942 21-277). The experiment in a line: cell-based or functional assay.
The target in assay [13] is T1, CD40-Fc. The experiment in a line: ELISA, coated receptor-Fc. The procedure: as §2
This is another data set of the same source.

The target of assay [14] is T6, CD40 receptor on cells. The assay can be described thus: cell-based or functional assay. The source holds these as a separate data set.
For assay [15], the target named is T1, CD40-Fc. The assay can be described thus: ELISA, coated receptor-Fc. The method, then: as §1
This is another data set of the same source.

Like-named read-outs stand apart in the source and are kept apart here.

T1 sequence (P25942 21-193 limits assumed): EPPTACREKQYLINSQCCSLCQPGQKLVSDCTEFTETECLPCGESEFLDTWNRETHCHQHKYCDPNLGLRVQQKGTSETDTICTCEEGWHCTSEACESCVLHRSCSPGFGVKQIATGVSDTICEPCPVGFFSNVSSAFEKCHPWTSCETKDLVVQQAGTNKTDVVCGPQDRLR
Sequence of 4-1BB receptor on cells (Q07011 24-255): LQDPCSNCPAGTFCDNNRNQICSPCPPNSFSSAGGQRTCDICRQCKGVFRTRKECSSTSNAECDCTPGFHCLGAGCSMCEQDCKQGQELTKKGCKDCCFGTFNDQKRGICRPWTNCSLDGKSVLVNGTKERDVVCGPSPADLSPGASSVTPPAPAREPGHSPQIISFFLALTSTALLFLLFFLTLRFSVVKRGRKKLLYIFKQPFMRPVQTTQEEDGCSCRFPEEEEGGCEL
T6 sequence (P25942 21-277): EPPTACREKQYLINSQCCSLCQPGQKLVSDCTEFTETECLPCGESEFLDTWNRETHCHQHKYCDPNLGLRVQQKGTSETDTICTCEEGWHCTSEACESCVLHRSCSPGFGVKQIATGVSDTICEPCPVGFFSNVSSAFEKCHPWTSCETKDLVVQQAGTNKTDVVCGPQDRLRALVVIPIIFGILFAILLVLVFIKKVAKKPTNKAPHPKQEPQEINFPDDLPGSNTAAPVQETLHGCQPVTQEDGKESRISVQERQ

B1: OX40L-4-1BBL (ligand)
chain: QVSHRYPRIQSIKVQFTEYKKEKGFILTSQKEDEIMKVQNNSVIINCDGFYLISLKGYFSQEVNISLHYQKDEEPLFQLKKVRSVNSLMVASLTYKDKVYLNVTTDNTSLDDFHVNGGELILIHQNPGEFCVLGGGGSGGGGSGGGGSGGGGSREGPELSPDDPAGLLDLRQGMFAQLVAQNVLLIDGPLSWYSDPGLAGVSLTGGLSYKEDTKELVVAKAGVYYVFFQLELRRVVAGEGSGSVSLALHLQPLRSAAGAAALALTVDLPPASSEARNSAFGFQGRLLHLSAGQRLGVHLHTEARARHAWQLTQGATVLGLFRVTPEIPAGLPSPRSE
notes: Duokine from HEK293, FLAG-purified; VH leader left out; homotrimer by SEC; also called Duokine OX40L-4-1BBL; not shown: N-terminal FLAG tag
Turning to B1, the binding result with CD40-Fc [1] and in the assay with CD27-Fc [2] was “no binding (tested: 100 nM (FIG. 4))” throughout. Further, the entries for the “Receptor activation (EC50, nM)” value with 4-1BB receptor on cells and with OX40 receptor on cells [3] were 2.75 nM and 0.85 nM, respectively. Besides, the EC50 is 1.26 nM in the assay with 4-1BB-Fc [4] and 7.17 nM with OX40-Fc [5].

B2: CD27L-4-1BBL (ligand)
chain: SLGWDVAELQLNHTGPQQDPRLYWQGGPALGRSFLHGPELDKGQLRIHRDGIYMVHIQVTLAICSSTTASRHHPTTLAVGICSPASRSISLLRLSFHQGCTIASQRLTPLARGDTLCTNLTGTLLPSRNTDETFFGVQWVRPGGGGSGGGGSGGGGSGGGGSREGPELSPDDPAGLLDLRQGMFAQLVAQNVLLIDGPLSWYSDPGLAGVSLTGGLSYKEDTKELVVAKAGVYYVFFQLELRRVVAGEGSGSVSLALHLQPLRSAAGAAALALTVDLPPASSEARNSAFGFQGRLLHLSAGQRLGVHLHTEARARHAWQLTQGATVLGLFRVTPEIPAGLPSPRSE
notes: Duokine from HEK293, FLAG-purified; VH leader left out; homotrimer by SEC; also called Duokine CD27L-4-1BBL; not shown: N-terminal FLAG tag
With B2, the binding result in the assay with CD40-Fc [1] and with OX40-Fc [6] was “no binding (tested: 100 nM (FIG. 4))” in each case. Moreover, the “Receptor activation (EC50, nM)” value in the assay with 4-1BB receptor on cells worked out at 1.44 nM. Besides, the EC50 in the assay with CD27-Fc [7] came out at 6.34 nM; with 4-1BB-Fc [4], 1.41 nM.

B3: scCD27L-scOX40L (ligand)
chain: SLGWDVAELQLNHTGPQQDPRLYWQGGPALGRSFLHGPELDKGQLRIHRDGIYMVHIQVTLAICSSTTASRHHPTTLAVGICSPASRSISLLRLSFHQGCTIASQRLTPLARGDTLCTNLTGTLLPSRNTDETFFGVQWVRPGGGSGGGSLGWDVAELQLNHTGPQQDPRLYWQGGPALGRSFLHGPELDKGQLRIHRDGIYMVHIQVTLAICSSTTASRHHPTTLAVGICSPASRSISLLRLSFHQGCTIASQRLTPLARGDTLCTNLTGTLLPSRNTDETFFGVQWVRPGGGSGGGSLGWDVAELQLNHTGPQQDPRLYWQGGPALGRSFLHGPELDKGQLRIHRDGIYMVHIQVTLAICSSTTASRHHPTTLAVGICSPASRSISLLRLSFHQGCTIASQRLTPLARGDTLCTNLTGTLLPSRNTDETFFGVQWVRPGGGGSGGGTGGGGSQVSHRYPRIQSIKVQFTEYKKEKGFILTSQKEDEIMKVQNNSVIINCDGFYLISLKGYFSQEVNISLHYQKDEEPLFQLKKVRSVNSLMVASLTYKDKVYLNVTTDNTSLDDFHVNGGELILIHQNPGEFCVLGGGSGGGQVSHRYPRIQSIKVQFTEYKKEKGFILTSQKEDEIMKVQNNSVIINCDGFYLISLKGYFSQEVNISLHYQKDEEPLFQLKKVRSVNSLMVASLTYKDKVYLNVTTDNTSLDDFHVNGGELILIHQNPGEFCVLGGGSGGGQVSHRYPRIQSIKVQFTEYKKEKGFILTSQKEDEIMKVQNNSVIINCDGFYLISLKGYFSQEVNISLHYQKDEEPLFQLKKVRSVNSLMVASLTYKDKVYLNVTTDNTSLDDFHVNGGELILIHQNPGEFCVL
notes: scDuokine from HEK293, FLAG-purified; VH leader left out; also called single-chain Duokine scCD27L-scOX40L; not shown: N-terminal FLAG tag
For B3, the binding result with CD40-Fc [1] and with 4-1BB-Fc [8] was “no binding (tested: 100 nM (FIG. 10))” each time. Further, in the assay with OX40 receptor on cells [9], the “Receptor activation (EC50, nM)” value was 1.49 nM. For the same molecule, the half-maximal effective concentration (EC50) came to 7.34 nM with CD27-Fc [10] and 286 nM in the assay with OX40-Fc [11].

B4: scOX40L-scCD40L (ligand)
chain: QVSHRYPRIQSIKVQFTEYKKEKGFILTSQKEDEIMKVQNNSVIINCDGFYLISLKGYFSQEVNISLHYQKDEEPLFQLKKVRSVNSLMVASLTYKDKVYLNVTTDNTSLDDFHVNGGELILIHQNPGEFCVLGGGSGGGQVSHRYPRIQSIKVQFTEYKKEKGFILTSQKEDEIMKVQNNSVIINCDGFYLISLKGYFSQEVNISLHYQKDEEPLFQLKKVRSVNSLMVASLTYKDKVYLNVTTDNTSLDDFHVNGGELILIHQNPGEFCVLGGGSGGGQVSHRYPRIQSIKVQFTEYKKEKGFILTSQKEDEIMKVQNNSVIINCDGFYLISLKGYFSQEVNISLHYQKDEEPLFQLKKVRSVNSLMVASLTYKDKVYLNVTTDNTSLDDFHVNGGELILIHQNPGEFCVLGGGGSGGGTGGGGSGDQNPQIAAHVISEASSKTTSVLQWAEKGYYTMSNNLVTLENGKQLTVKRQGLYYIYAQVTFCSNREASSQAPFIASLCLKSPGRFERILLRAANTHSSAKPCGQQSIHLGGVFELQPGASVFVNVTDPSQVSHGTGFTSFGLLKLGGGSGGGGDQNPQIAAHVISEASSKTTSVLQWAEKGYYTMSNNLVTLENGKQLTVKRQGLYYIYAQVTFCSNREASSQAPFIASLCLKSPGRFERILLRAANTHSSAKPCGQQSIHLGGVFELQPGASVFVNVTDPSQVSHGTGFTSFGLLKLGGGSGGGGDQNPQIAAHVISEASSKTTSVLQWAEKGYYTMSNNLVTLENGKQLTVKRQGLYYIYAQVTFCSNREASSQAPFIASLCLKSPGRFERILLRAANTHSSAKPCGQQSIHLGGVFELQPGASVFVNVTDPSQVSHGTGFTSFGLLKL
notes: scDuokine from HEK293, FLAG-purified; VH leader left out; also called single-chain Duokine scOX40L-scCD40L; not shown: N-terminal FLAG tag
As to B4, the binding result in the assay with CD27-Fc [2] and with 4-1BB-Fc [8] was “no binding (tested: 100 nM (FIG. 10))” throughout. Also, the “Receptor activation (EC50, nM)” value in the assay with CD40 receptor on cells [12] was 3.22 nM; with OX40 receptor on cells [9], 0.51 nM. The results for the concentration giving a half-maximal response (EC50) with CD40-Fc [13] and with OX40-Fc [11] were 6.74 nM and 2.13 nM, respectively.

B5: CD40L-4-1BBL (ligand)
chain: GDQNPQIAAHVISEASSKTTSVLQWAEKGYYTMSNNLVTLENGKQLTVKRQGLYYIYAQVTFCSNREASSQAPFIASLCLKSPGRFERILLRAANTHSSAKPCGQQSIHLGGVFELQPGASVFVNVTDPSQVSHGTGFTSFGLLKLGGGGSGGGGSGGGGSGGGGSREGPELSPDDPAGLLDLRQGMFAQLVAQNVLLIDGPLSWYSDPGLAGVSLTGGLSYKEDTKELVVAKAGVYYVFFQLELRRVVAGEGSGSVSLALHLQPLRSAAGAAALALTVDLPPASSEARNSAFGFQGRLLHLSAGQRLGVHLHTEARARHAWQLTQGATVLGLFRVTPEIPAGLPSPRSE
notes: Duokine from HEK293, FLAG-purified; VH leader left out; homotrimer by SEC; also called Duokine CD40L-4-1BBL; not shown: N-terminal FLAG tag
Turning to B5, the binding result in the assay with CD27-Fc [2] and with OX40-Fc [6] was “no binding (tested: 100 nM (FIG. 4))” throughout. Besides, the “Receptor activation (EC50, nM)” value was 3.01 nM with CD40 receptor on cells [14] and 0.45 nM with 4-1BB receptor on cells. The values for the half-maximal effective concentration (EC50) in the assay with CD40-Fc [15] and with 4-1BB-Fc [4] were 10.1 nM and 2.11 nM, respectively.

By EC50 is commonly meant the concentration at which the effect is half-maximal.

The values above are taken from patent US20190276511A1 (BIONTECH RNA PHARMACEUTICALS, published 2019).
